B1: Mov19v1.6-GMBS-dAlalAla-PAB-DM1 (conjugate 4b) (antibody, human IgG1, kappa, V domains shown)
VH: QVQLVQSGAEVVKPGASVKISCKASGYTFTGYFMNWVKQSPGQSLEWIGRIHPYDGDTFYNQKFQGKATLTVDKSSNTAHMELLSLTSEDFAVYYCTRYDGSRAMDYWGQGTTVTVSS
VL: DIVLTQSPLSLAVSLGQPAIISCKASQSVSFAGTSLMHWYHQKPGQQPRLLIYRASNLEAGVPDRFSGSGSKTDFTLTISPVEAEDAATYYCQQSREYPYTFGGGTKLEIKR
modifications: D-Ala-L-Ala-PAB-DM1 linked through GMBS, about 3.5 DM/Ab
B2: conjugate 17g (antibody, human IgG1, kappa, V domains shown)
VH: B1 VH
VL: B1 VL
modifications: thio-peptide-maytansinoid 14g linked through sulfo-GMBS to antibody amines (Example 4)
B3: conjugate 17i (antibody, human IgG1, kappa, V domains shown)
VH: B1 VH
VL: B1 VL
modifications: thio-peptide-maytansinoid 14i linked through sulfo-GMBS to antibody amines (Example 4)
B4: conjugate 17h (antibody, human IgG1, kappa, V domains shown)
VH: B1 VH
VL: B1 VL
modifications: thio-peptide-maytansinoid 14h linked through sulfo-GMBS to antibody amines (Example 4)
B5: M9346A-sGMBS-LDL-DM (conjugate 17c) (antibody, human IgG1, kappa, V domains shown)
VH: B1 VH
VL: B1 VL
modifications: maytansinoid LDL-DM (compound 14c, L-Ala-D-Ala-L-Ala) linked through sulfo-GMBS to antibody amines, 3.7 mol LDL-DM/mol antibody

Biological target: folate receptor alpha (FRα) on cells (human, UniProt P15328 25-234)
Assay: cell-based or functional assay

Sequence of folate receptor alpha (FRα) on cells (P15328 25-234): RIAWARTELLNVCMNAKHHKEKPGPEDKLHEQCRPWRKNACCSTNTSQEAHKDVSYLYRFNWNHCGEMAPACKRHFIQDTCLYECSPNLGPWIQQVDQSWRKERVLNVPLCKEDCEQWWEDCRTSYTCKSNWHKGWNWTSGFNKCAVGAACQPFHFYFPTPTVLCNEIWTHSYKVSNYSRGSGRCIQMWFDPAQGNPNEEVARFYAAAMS

Binder	IC50, in vitro cytotoxicity (WST-8, 5 days), Igrov-1 cells, +Block	IC50, in vitro cytotoxicity (WST-8, 5 days), Igrov-1 cells, ADC	IC50, in vitro cytotoxicity (WST-8, 5 days), Jeg-3 cells, +Block	IC50, in vitro cytotoxicity (WST-8, 5 days), Jeg-3 cells, ADC	IC50, in vitro cytotoxicity (WST-8, 5 days), KB cells, +Block	IC50, in vitro cytotoxicity (WST-8, 5 days), KB cells, ADC	IC50, in vitro cytotoxicity (WST-8, 5 days), SKOV-6 cells, +Block	IC50, in vitro cytotoxicity (WST-8, 5 days), SKOV-6 cells, ADC
B1	20 nM	0.3 nM	10 nM	0.2 nM	> 50 nM	0.2 nM	10 nM	0.9 nM
B2	> 50 nM	3 nM	> 50 nM	0.5 nM	> 50 nM	0.3 nM	> 50 nM	> 10 nM
B3	> 50 nM	50 nM	> 50 nM	0.7 nM	> 50 nM	0.3 nM	> 50 nM	> 10 nM
B4	> 50 nM	30 nM	> 50 nM	0.5 nM	> 50 nM	0.4 nM	> 50 nM	> 10 nM
B5	> 50 nM	7 nM	> 50 nM	0.6 nM	> 50 nM	0.3 nM	> 50 nM	> 10 nM

Source: patent publication US20180296694A1 (IMMUNOGEN, published 2018)
